From patent US20240024520A1, “AUTONOMOUS KNOB DOMAIN PEPTIDES” (UCB BIOPHARMA SRL, priority 2020, published 2024)
Read-outs that look alike come from different tables or passages of the source. Bridge positions count the residues as written; N and C are the ends. Peptide text beside a SMILES is read from it.

What was measured:
Assay type in all cases: binding
C5 [1] = target: T1, C5 (Homo sapiens, UniProt P01031); assay: Monoclonal phage screening ELISA, human C5
Experimental: (§1) For the C5 libraries, a single round of enrichment was performed with either human or rat C5 protein. […] Phage were blocked for 30 minutes. Biotinylated antigen was added to the blocked phage at a concentration of 100 nM and incubated at room temperature with mixing.
(§2) Colonies were picked into a 96-well culture plate containing selective medium 2TY supplemented with 1% Glucose and 100 μg/ml Carbenicillin and was incubated at 37° C. until wells reached mid-log phase of growth prior to addition of M13K07 helper phage. The block was incubated without shaking for 1 hour to achieve infection and phage production using continued culture in selective media supplemented with 50 μg/ml Kanamycin and 100 μg/ml Carbenicillin.
Binding to antigen was assessed by monoclonal phage ELISA, 96-well flat bottom Nunc MaxiSorp plates (Thermofisher) were coated with a 2.5 μg/ml solution of human, mouse, or rat serum albumin, human C5 or mouse C5 diluted with PBS, and left overnight at 4° C. Negative control plate and Anti-myc tag plate were also prepared.
(§3) Monoclonal phage rescue supernatants were blocked with an equal volume of a 2% milk (w/v) in PBS, for serum albumin proteins, or 2% BSA and 2% milk (w/v) in PBS solution. The coating solution was removed from coated Nunc plates and each plate was blocked with 1% BSA in PBS (for C5 libraries) or 1% milk powder (for albumin library). Both phage and Nunc plates were blocked for 1 hour at room temperature. Nunc plates were washed using a 96-well microplate washer (BioTek) with a PBS solution contain 0.1% Tween20 (Sigma Aldrich). 100 of blocked phage solution was added to each well of Nunc MaxiSorp plate and left shaking at room temperature for 1 hour. Plates were washed and dried as previously described. 100 of an Anti-M13-Horse radish peroxidase conjugated antibody (GE Healthcare) diluted (1:5,000) in a 1% BSA or milk solution was added to each well and left shaking at room temperature for 1 hour. Plates were washed again and 50 μL of TMB solution (Merck Millipore) was added to each well. Plates were left shaking for 10 minutes. Absorbance was measured at 630 nm and 490 nm. Binding signals were obtained where Absorbance at 630 nm was >3-times the signal upon irrelevant antigen.
(§4) By monoclonal phage ELISA the following ultralong CDR-H3 sequences were identified as binders (OD>0.2 AU): […]

rat C5 protein = rat C5 protein (Rattus norvegicus, UniProt P08650); assay: Monoclonal phage screening ELISA, rat C5
rat C5 protein, sequence (P08650 19-674 limits assumed): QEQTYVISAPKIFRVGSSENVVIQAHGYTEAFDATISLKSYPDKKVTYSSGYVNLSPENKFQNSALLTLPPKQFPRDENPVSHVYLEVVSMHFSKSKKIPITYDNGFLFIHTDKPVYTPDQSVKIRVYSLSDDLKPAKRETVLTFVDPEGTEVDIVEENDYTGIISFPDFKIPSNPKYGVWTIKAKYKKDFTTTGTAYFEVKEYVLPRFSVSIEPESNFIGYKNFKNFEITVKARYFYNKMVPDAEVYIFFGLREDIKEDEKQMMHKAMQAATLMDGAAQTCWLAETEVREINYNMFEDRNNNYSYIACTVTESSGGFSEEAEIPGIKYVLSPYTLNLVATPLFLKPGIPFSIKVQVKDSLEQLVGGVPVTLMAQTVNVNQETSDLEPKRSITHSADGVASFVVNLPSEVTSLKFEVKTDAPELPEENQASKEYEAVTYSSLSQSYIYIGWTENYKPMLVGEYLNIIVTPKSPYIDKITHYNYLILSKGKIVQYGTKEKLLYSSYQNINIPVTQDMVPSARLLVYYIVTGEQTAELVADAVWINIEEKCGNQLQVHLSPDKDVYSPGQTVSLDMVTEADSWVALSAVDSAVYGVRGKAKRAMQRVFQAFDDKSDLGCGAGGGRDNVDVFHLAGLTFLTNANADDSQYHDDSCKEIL
rat C5 protein, sequence (P08650 679-1681 limits assumed): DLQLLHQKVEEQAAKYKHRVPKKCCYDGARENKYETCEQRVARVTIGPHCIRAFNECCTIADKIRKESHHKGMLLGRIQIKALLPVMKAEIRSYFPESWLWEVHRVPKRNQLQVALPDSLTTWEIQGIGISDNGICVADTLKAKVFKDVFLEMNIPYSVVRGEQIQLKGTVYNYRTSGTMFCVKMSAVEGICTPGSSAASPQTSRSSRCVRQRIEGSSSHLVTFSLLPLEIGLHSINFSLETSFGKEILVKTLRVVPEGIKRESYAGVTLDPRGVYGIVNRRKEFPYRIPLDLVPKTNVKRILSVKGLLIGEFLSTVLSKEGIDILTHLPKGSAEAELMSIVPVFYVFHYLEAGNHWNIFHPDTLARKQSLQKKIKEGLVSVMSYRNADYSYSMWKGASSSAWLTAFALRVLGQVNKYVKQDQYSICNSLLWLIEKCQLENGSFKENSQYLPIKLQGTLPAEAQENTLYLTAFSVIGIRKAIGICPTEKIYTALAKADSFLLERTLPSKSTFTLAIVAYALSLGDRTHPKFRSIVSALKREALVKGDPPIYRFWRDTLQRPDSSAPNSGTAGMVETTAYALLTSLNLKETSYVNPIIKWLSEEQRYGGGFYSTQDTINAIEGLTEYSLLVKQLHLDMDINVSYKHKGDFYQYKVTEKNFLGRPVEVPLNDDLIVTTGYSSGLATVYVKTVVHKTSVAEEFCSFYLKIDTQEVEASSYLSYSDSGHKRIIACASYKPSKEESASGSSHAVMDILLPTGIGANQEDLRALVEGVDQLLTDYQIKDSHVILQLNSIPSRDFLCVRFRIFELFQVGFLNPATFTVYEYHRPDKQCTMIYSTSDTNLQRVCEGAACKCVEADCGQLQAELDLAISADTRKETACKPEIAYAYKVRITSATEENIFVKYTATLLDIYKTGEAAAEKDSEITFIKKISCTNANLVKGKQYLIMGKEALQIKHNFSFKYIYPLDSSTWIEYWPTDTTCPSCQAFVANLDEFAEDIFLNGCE
Experimental: as §1, §2
[…] Negative control plate and Anti-myc tag plate were also prepared.
as §3, §4

C5 [2] = target: T1, C5; assay: Biacore (SPR) single-cycle kinetics on immobilised C5
Experimental: Binding to C5 was measured using surface plasmon resonance (SPR) single-cycle kinetics as described below.
Biacore single-cycle kinetics. Using a Biacore 8K (GE Healthcare), C5 was immobilized on a CM5 chip by amine coupling. Flow cells were activated using EDC/NHS (flow rate, 10 μL/min; contact time, 30 s). C5, at 1 μg/mL in pH 4.5 Sodium-acetate buffer, was immobilized on flow cell two only (flow rate, 10 μL/min; contact time, 420 s). Finally, ethanolamine was applied to both flow cells (flow rate, 10 μL/min; contact time, 420 s). A final immobilization level of approximately 2,000 response units was obtained.
Single-cycle kinetics were measured using titrations in HBS-EP buffer. A high flow rate of 40 μL/min was used, with a contact time of 230 s and a dissociation time of 900 s. Binding to the reference surface was subtracted, and the data were fitted to a single-site binding model using Biacore evaluation software.
We measured individual rate constants (kon and koff) and equilibrium dissociation constants (KD) for knob domain peptides binding to C5 by the Biacore single-cycle kinetics method described above.
We used SPR single cycle kinetics to measure binding to human C5 protein.

C5 [3] = target: T1, C5; assay: Biacore multi-cycle kinetics on human C5; conditions: for mean stoichiometric ratio: measured Rmax divided by theoretical Rmax
Experimental: Binding of knob domain peptides to human C5 was measured by SPR, using a multi-cycle kinetics method as follows:
Kinetics were measured using a Biacore 8K (GE Healthcare) with a CM5 chip, which was prepared as follows: EDC/NHS was mixed at 1:1 ratio (flow rate, 10 μL/min; contact time, 30 seconds), human C5 protein at 1 μg/mL in pH 4.5 sodium-acetate buffer, were injected over flow cell one only (flow rate, 10 μL/min; contact time, 60 seconds). Final immobilization levels in the range of 2000-3000 response units (RU) were obtained, to yield theoretical Rmax values of ˜50-60 RU. Serial dilutions of peptide were prepared in HBS-EP buffer and injected (flow rate, 30 μL/min; contact time, 240 seconds; dissociation time, 6000 seconds). After each injection, the surface was regenerated with two sequential injections of 2M MgCl2 (flow rate, […]; contact time, 30 seconds). Binding to the reference surface was subtracted, and the data were fitted to a single site binding model, using Biacore evaluation software.

[4] = anti-C5 ultralong CDR-H3, binder = OD>0.2 AU
[5] = knob domain of the anti-C5 ultralong CDR-H3

T1 sequence (P01031 19-1676): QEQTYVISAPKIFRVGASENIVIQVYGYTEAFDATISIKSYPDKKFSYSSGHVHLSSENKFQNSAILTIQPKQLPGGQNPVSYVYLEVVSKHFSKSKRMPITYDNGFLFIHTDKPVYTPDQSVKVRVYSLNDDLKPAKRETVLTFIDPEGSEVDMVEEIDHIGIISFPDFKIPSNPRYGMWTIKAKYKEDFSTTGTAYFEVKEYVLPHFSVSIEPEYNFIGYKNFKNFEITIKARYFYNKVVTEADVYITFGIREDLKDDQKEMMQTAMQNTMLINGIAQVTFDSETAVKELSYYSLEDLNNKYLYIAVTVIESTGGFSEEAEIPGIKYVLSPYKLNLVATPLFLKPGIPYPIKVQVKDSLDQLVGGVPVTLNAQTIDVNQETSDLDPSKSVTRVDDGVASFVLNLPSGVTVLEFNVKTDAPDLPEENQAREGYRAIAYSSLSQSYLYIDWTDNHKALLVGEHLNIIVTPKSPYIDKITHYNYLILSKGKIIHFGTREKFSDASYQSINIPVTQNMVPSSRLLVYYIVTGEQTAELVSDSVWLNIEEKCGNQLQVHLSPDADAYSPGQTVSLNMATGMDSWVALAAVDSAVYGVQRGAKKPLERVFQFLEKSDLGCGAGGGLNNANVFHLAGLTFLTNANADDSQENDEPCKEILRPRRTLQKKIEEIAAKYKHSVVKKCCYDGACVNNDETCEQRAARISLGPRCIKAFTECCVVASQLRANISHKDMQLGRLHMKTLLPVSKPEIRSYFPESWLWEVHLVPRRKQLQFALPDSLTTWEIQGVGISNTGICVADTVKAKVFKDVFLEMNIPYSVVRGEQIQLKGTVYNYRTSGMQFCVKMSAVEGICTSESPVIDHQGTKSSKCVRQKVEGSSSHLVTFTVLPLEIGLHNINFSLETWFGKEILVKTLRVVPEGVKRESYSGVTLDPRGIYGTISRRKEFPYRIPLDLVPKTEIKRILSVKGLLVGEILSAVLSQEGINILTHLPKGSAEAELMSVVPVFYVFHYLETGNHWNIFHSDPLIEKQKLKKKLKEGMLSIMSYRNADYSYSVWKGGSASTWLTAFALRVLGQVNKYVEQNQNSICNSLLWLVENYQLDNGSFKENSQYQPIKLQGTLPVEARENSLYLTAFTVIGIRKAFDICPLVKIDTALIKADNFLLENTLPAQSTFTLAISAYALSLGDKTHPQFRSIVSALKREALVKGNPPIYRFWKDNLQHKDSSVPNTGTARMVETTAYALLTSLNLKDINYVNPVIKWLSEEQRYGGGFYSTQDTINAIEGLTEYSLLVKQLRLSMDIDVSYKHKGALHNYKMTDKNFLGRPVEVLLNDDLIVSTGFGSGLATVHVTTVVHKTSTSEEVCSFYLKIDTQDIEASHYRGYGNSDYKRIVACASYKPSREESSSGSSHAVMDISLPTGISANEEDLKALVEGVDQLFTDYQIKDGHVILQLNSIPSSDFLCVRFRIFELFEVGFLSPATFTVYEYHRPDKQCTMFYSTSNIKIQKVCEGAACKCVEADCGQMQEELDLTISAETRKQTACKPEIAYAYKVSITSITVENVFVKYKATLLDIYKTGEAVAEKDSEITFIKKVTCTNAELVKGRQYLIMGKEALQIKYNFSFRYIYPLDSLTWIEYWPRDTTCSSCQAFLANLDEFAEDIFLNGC

| Compound | Specificity (C5 [1]; [4]) | Specificity (rat C5 protein; [4]) | Specificity (C5 [1]; [5]) | Specificity (rat C5 protein; [5]) | other results |
| --- | --- | --- | --- | --- | --- |
| 551 (TTVHQRTKKTCPLGYDLNYRCDHFNTCRVEECCKNGVVNAYGICEYAGGSATYTYEWYVD; Anti-C5 ultralong CDR-H3) [compound 551] | Human and Rat | Human and Rat | – | – | – |
| 552 (TTVHQRTKEERTCPSGCSWFSGCWDTYRCGPSVCCRDGRYGCAAIICRDTYEWYVD; Anti-C5 ultralong CDR-H3) [compound 552] | Human and Rat | Human and Rat | – | – | – |
| 553 (TTVHQKTKKTCPRGYHYNDRCEFFNTCRVEECCLNGVVNTYGICEYEGGSATYTYEWYVD; Anti-C5 ultralong CDR-H3) [compound 553] | Human and Rat | Human and Rat | – | – | – |
| 554 (TTVHQKTKKTCPRGYHYNDRCDFFNTCRVEECCLNGVVNTYGICEYEGGSATYTYEWYVD; Anti-C5 ultralong CDR-H3) [compound 554] | Human and Rat | Human and Rat | – | – | – |
| 555 (TTVHQKTKKTCPRGYHYNDRCEFFNTCRVEECCLNGVVNTYGICEYEGGSATYTYEWYVD; Anti-C5 ultralong CDR-H3) [compound 555] | Human and Rat | Human and Rat | – | – | – |
| 557 (TTVHLKTKKSCPLGYAINDRCDDLKTCGPDECCLNGVVNAYGICEYEGESATHTYEWYVD; Anti-C5 ultralong CDR-H3) [compound 557] | Human and Rat | Human and Rat | – | – | – |
| 558 (TTVHQKTKKSCPLGYAINDRCDDLKTCGPDECCLNGVVNAYGICEYEGESATHTYELYVE; Anti-C5 ultralong CDR-H3) [compound 558] | Human and Rat | Human and Rat | – | – | – |
| 594 (TCPLGYDLNYRCDHFNTCRVEECCKNGVVNAYGICEYAGGSAT; Anti-C5 ultralong CDR-H3 knob domain) [compound 594] | – | – | Human and Rat | Human and Rat | – |
| 595 (TCPSGCSWFSGCWDTYRCGPSVCCRDGRYGCAAIICRDT; Anti-C5 ultralong CDR-H3 knob domain) [compound 595] | – | – | Human and Rat | Human and Rat | – |
| 596 (TCPRGYHYNDRCEFFNTCRVEECCLNGVVNTYGICEYEGGSAT; Anti-C5 ultralong CDR-H3 knob domain) [compound 596] | – | – | Human and Rat | Human and Rat | – |
| 597 (TCPRGYHYNDRCDFFNTCRVEECCLNGVVNTYGICEYEGGSAT; Anti-C5 ultralong CDR-H3 knob domain) [compound 597] | – | – | Human and Rat | Human and Rat | – |
| 598 (SCPDGYGYGDGYCYDSGCSASDCYGVDALYSYGHCGCSIYTERPR; Anti-C5 ultralong CDR-H3 knob domain) [compound 598] | – | – | Human and Rat | Human and Rat | – |
| 599 (SCPLGYAINDRCDDLKTCGPDECCLNGVVNAYGICEYEGESAT; Anti-C5 ultralong CDR-H3 knob domain) [compound 599] | – | – | Human and Rat | Human and Rat | – |
| CSCC[C@@H]1NC(=O)[C@@H]2CCCN2C(=O)[C@@H](NC(=O)[C@@H]2CSSC[C@H](NC(=O)[C@@H](N)CO)C(=O)N3CCC[C@H]3C(=O)N[C@@H](CC(=O)O)C(=O)NCC(=O)N[C@@H](Cc3ccccc3)C(=O)N[C@@H](CO)C(=O)N[C@@H](Cc3ccc(O)cc3)C(=O)N[C@@H](CCCNC(=N)N)C(=O)N[C@@H](CO)C(=O)N[C@@H](Cc3c[nH]c4ccccc34)C(=O)N[C@@H](CC(=O)O)C(=O)N[C@@H](CC(=O)O)C(=O)N[C@@H](Cc3ccccc3)C(=O)N2)CSSC[C@@H](C(=O)N[C@@H](CC(C)C)C(=O)N[C@@H](C)C(=O)N2CCC[C@H]2C(=O)N[C@@H](CCCNC(=N)N)C(=O)N[C@@H](CC(N)=O)C(=O)O)NC(=O)[C@H](CCCNC(=N)N)NC(=O)CNC(=O)[C@H](C(C)C)NC1=O (H-SCPDGFSYRSWDDFCCPMVGRCLAPRN-OH; disulfide 2-15, 16-22; N-terminus assumed) | – | – | – | – | Kd (C5 [2]): 6.17 nM; kd (C5 [2]; chemically derived knob domain peptides, n = 1): 0.00723 s⁻¹; kon (C5 [2]; read-out: ka): 1.17e+06 M⁻¹ s⁻¹; fold more potent than K149B (C5 [2]; site directed disulphide forms of K149): 41 fold; Kd (C5 [3]): 7.31 nM; mean stoichiometric ratio (C5 [3]; n = 3 experiments, listed as K149chemSD-A): 0.82; koff (C5 [3]; read-out: mean Koff, multi-cycle kinetics, n = 3 experiments): 0.00484 s⁻¹; kon (C5 [3]; read-out: mean Kon, multi-cycle kinetics, n = 3 experiments): 713000 M⁻¹ s⁻¹ |
| CC[C@H](C)[C@@H]1NC(=O)[C@H](C)NC(=O)[C@H](C(C)C)NC(=O)CNC(=O)[C@@H]2CSSC[C@@H](C(=O)NCC(=O)N[C@@H](Cc3c[nH]cn3)C(=O)N[C@@H](Cc3ccccc3)C(=O)N[C@@H](CC(C)C)C(=O)N[C@@H](CC(N)=O)C(=O)N[C@@H](CO)C(=O)NCC(=O)N3CCC[C@H]3C(=O)N[C@@H](CC(N)=O)C(=O)N[C@H](C(=O)N[C@@H](CO)C(=O)N3CCC[C@H]3C(=O)N[C@@H](Cc3ccc(O)cc3)C(=O)N[C@H](C(=O)N[C@@H](CO)C(=O)N[C@H](C(=O)O)[C@@H](C)O)C(C)C)[C@@H](C)CC)NC(=O)CNC(=O)[C@H](Cc3c[nH]c4ccccc34)NC(=O)[C@H](CCCNC(=N)N)NC(=O)CNC(=O)[C@H](CSSC[C@H](NC(=O)[C@@H](N)[C@@H](C)O)C(=O)N3CCC[C@H]3C(=O)N[C@@H](CCC(=O)O)C(=O)NCC(=O)N[C@@H](Cc3c[nH]c4ccccc34)C(=O)N[C@@H](CO)C(=O)N[C@@H](CCC(=O)O)C(=O)N2)NC(=O)[C@H](CCC(=O)O)NC(=O)[C@H](C)NC(=O)CNC(=O)[C@H](Cc2ccc(O)cc2)NC1=O [K92chemFE Y16A] (H-TCPEGWSECGVAIYGAECGRWGCGHFLNSGPNISPYVST-OH; disulfide 2-18, 9-23; N-terminus assumed) | – | – | – | – | mean stoichiometric ratio (C5 [3]; n = 3 experiments): 0.66; koff (C5 [3]; multi-cycle kinetics, n = 3 experiments, read-out: mean Koff): 0.786 s⁻¹; kon (C5 [3]; multi-cycle kinetics, n = 3 experiments, read-out: mean Kon): 1.56e+07 M⁻¹ s⁻¹ |
| K92 chemFE W21H: W21H mutant of K92chemFE (TCPEGWSECGVAIYGYECGRHGCGHFLNSGPNISPYVST) | – | – | – | – | binding to human C5 (C5 [3]; chemical knob domains and variants, result in words): much-lower loss of affinity |
